Results from the DeepSol protein solubility set.

Test: soluble on expression in E. coli; label from the status in PepcDB or PDB records

| Sequence | soluble on expression in E. coli |
| --- | --- |
| MGSDKIHHHHHHMEEINKYIQNSSETGGEIYNLIEELFPICRSITGNGVRKTMDIIRKHIPLEIHEVKSGTKVFDWTVPKEWNIKDAYVRNSKGEKVIDFKENNLHVMSYSVPVHKTMTLDELKPYLHTIPGNKDRIPYLTSYYKENWGFSLTQNKFDELCDDDYEVVIDSSLEDGSLTYGEYYIRGELEEEILLTTYTCHPSMCNDNLSGVALITFIAKALSKLKTKYSYRFLFAPETIGSITWLSRNEDKLKNIKMGLVATCVGDAGIKNYKRTKFGDAEIDKIVEKVLMHCGSEYYVADFFPWGSDERQFSSPGINLSVGSLMRSCYGFDGYHTSADNLCYMNKDGLADSYKTYLEVIYTIENNRTYLNLNPKCEPQLGKRGIYRMIGGGSDYPFDEFAMFWVLNMSDGKNSLLDIAYKSGMEFRRIKYAADALYRVELLKLV | not soluble |
| MGSDKIHHHHHHMEELIQKALSSSNKVSSNSLIEKIIPVGGGCIHKAWSIHFQNGKRVFAKSNYIDNINMFKFERECLSVLKRFANESYICVPETLDLISYQNISILFLEWIDLKQCQQNVLGKGLALLHKSSSEWSKKNFGWEEEGFIGSSTQARGWKSNWGEFFVNYRLRPQLLQAKAWGVRVEDYEDVLIYLSSYLNDHQPKTSLVHGDLWSGNCGSTKNGLGSLYDPACYWADREVDISMTKLFGGFNREFYKGYEEIWPLNKFSKDRNDIYNLYHLLNHANIFGGSYKENSLKILKDLRSRV | not soluble |
| MGSDKIHHHHHHMEESPLSRAPSRGGVNFLNVARTYIPNTKVECHYTLPPGTMPSASDWIGIFKVEAACVRDYHTFVWSSVPESTTDGSPIHTSVQFQASYLPKPGAQLYQFRYVNRQGQVCGQSPPFQFREPRPMDELVTLEEADGGSDILLVVPKATVLQNQLDESQQERNDLMQLKLQLEGQVTELRSRVQELERALATARQEHTELMEQYKGISRSHGEITEERDILSRQQGDHVARILELEDDIQTISEKVLTKEVELDRLRDTVKALTREQEKLLGQLKEVQADKEQSEAELQVAQQENHHLNLDLKEAKSWQEEQSAQAQRLKDKVAQMKDTLGQAQQRVAELEPLKEQLRGAQELAASSQQKATLLGEELASAAAARDRTIAELHRSRLEVAEVNGRLAELGLHLKEEKCQWSKERAGLLQSVEAEKDKILKLSAEILRLEKAVQEERTQNQVFKTELAREKDSSLVQLSESKRELTELRSALRVLQKEKEQLQEEKQELLEYMRKLEARLEKVADEKWNEDATTEDEEAAVGLSCPAALTDSEDESPEDMRLPPYGLCERGDPGSSPAGPREASPLVVISQPAPISPHLSGPAEDSSSDSEAEDEKSVLMAAVQSGGEEANLLLPELGSAFYDMASGFTVGTLSETSTGGPATPTWKECPICKERFPAESDKDALEDHMDGHFFFSTQDPFTFE | not soluble |
| MGSDKIHHHHHHMEFQCPLCRQRLHFHEESRGWHCDGKHHFDKKEIGYWDFYKGNKPRNAESRQELRARQFLVTSGLFQPAVEAMVKVLQTQDCGSERNCVNLGPGHAWIGKLLAQALSEHELPLKVFSPLESENEAFAAAKSGMEAVCLTPLKSLPFADASADMVWLLDIPAKGKEWQRILKPGGLLLMLAAGPRHLWQIKEFVYEGLTEKPFVLELSGQFDLISQTPVSWTHALSVADAKVLMGMAPWAWRVKEASLKAMEKGDFSGLEMDYRIILAKKRV | not soluble |
| MGSDKIHHHHHHMEFSPPLQRATLIQRYKRFLADVITPDGRELTLHCPNTGAMTGCATPGDTVWYSTSDNTKRKYPHTWELTQSQSGAFICVNTLWANRLTKEAILNESISELSGYSSLKSEVKYGSERSRIDFMLQADSRPDCYIEVKSVTLAENEQGYFPDAVTERGQKHLRELMSVAAEGQRAVIFFAVLHSAITRFSPARHIDEKYAQLLSEAQQRGVEILAYKAEISAEGMALKKSLPVTL | not soluble |
| MGSDKIHHHHHHMEFTSLWQEFARISEVEAIALGGSRATGNYDETSDYDLYIYCSSIPDEATRLTILKSFCSYIEIGNHFWELEDDCTLMSGQDIDILYRDINQIRDELVDVVERCIIQNAYTTCLWHNVLHSKILYDSDDKLKCIVNRFDINYPQKLKQTILSHHMNLLTGHLPSYDKQIIKAVMRKDIVSFNHRVTAFLETYFDLIFALNMLTHPGEKRMIAYAEQNAQSLPNHFQKNIERLIYGTTCHPYDIQDILNDILNELTPLLHDSIG | not soluble |
| MGSDKIHHHHHHMEILLARQPIVDRFGSIDAFELLYRSVETPAVFDGDLATMDVLTNTLIHLGVDRVAEGKRLFINFTGDLLQSELIDHLNPTQFVIEVLETVQIDEMMLQTLQKWKEAGFVLALDDFVTDLLRHHGPELFDLIDLIKIDIEAINPREQSAILHILKRNYPHIRFLAERVETHEDHTRSLAMGYDWFQGYFYAKPMLMKGKAVPPQVPVLLKMLKWLDTDDHYDDVVDEIEGNPYISVQVLQLINSPGIGLRNMVSSVRQAISLLGFSQLKSWISLIVLREMKLASPYQWSDELLRSSLHCAKLCQLFATETKTLKAESAYMIGLLSHIDALLSVDIGEIIDQLPIEPALKNVLQGEDHPFRDCLLLAISADRGEFERFEMLSNRFGIMKHRAYELLKESQVWLSQKELHLQDKTDSIV | not soluble |
| MGSDKIHHHHHHMELDILDALGEGWTLTPAGGITGEAYIASTGQSKLFLKRNSSPFLAILSADGIVPKLLWTKRIYSGDVISAQQFIEGQELEPEMMERPEVARLLGKIHDSKELLFMLQQLDQRPIEPDELLRQCRLYFQPAELAQPELIEQAIDYLSERLPYVRTDEQVVCHSDLNHNNWLVGTDGHLYLNDWDDAIIADRAYDLGMMLYSYVDEECWPEWFAHYGHPLTKDLKQRMYWYVVAQAVLSIYWYEDTMHPDATESYLFLAQLLEMEQED | not soluble |
| MGSDKIHHHHHHMELGIIYSGEFGKRFVSNLAYPYLCPTFGACGINGCDYCKRYDFSSSIVYAKELAEPQEIGLYVEEPESYLEPFECDIAVAINVHPDILVSLPEIGEFKALIVPACNQNWCLPGLRKQLAEKCGELGIEFASPKPFCSLTGNSGWISRFIDEFKIGRPEFRVERGGDAIKKVEVIKSDPCGSAYFVAKRMTGYIIESKEDFWKEIHQHQCAYPCMASMDRDVELKEAPFHLAGYIMVYQFSTAAGVEAEEFVPEHFREIVCRAR | not soluble |
| MGSDKIHHHHHHMELKILVTGGNVFVPGRLNAHFSTVVYLEHKDRRIIIDPGNLSSMDELEEKFSELGISPDDITDVLFTHVHLDHIFNSVLFENATFYVHEVYKTKNYLSFGTIVGRIYSKVISSWKNVVLLKGEESLFDEKVKVFHTPWHAREHLSFLLDTENAGRVLITGDITPNRLSYYDIIKGYGSVQVKNFLDRVGRIDLLVFPHDAPLKPEVKK | soluble |
| MGSDKIHHHHHHMENILDKLGIELNEQTRLTNDSKFTFNCHSGLSCFNTCCSNLDIVLTPYDILRMKNRLGLTSVEFISEYTEPVIQKESKLPFLKLKLGDEGKCRFVAAEGCTVYGDRPAACRYYPLGFGIYKNEEAGDDFYFLIREDHCKGFEEEREWTVGEWRKNQGVDEYDDKNRVWMEVILNKKLYSPELEPDEKSLKMFFMASYDLDAFRDFVFESRFLDVFDIEEERLEMIKNDEAELMLFAHQWLLFALFKKPTMNLKQV | not soluble |
| MGSDKIHHHHHHMEPEASPLFIDFAGISAGEKILDVGCGTGSLTFALLKAADLKEITAIDDSPVFVAETIRRSTDPRIKVEQGDACALAFDDGAFDRALALLVLHFVTDAGKAVAEMRRVVRPGGVVAASVWDHLGGMPGMRMMVDTVAALSEAGRQFRERYCFQPMMRPGEMKATFIEQGLLQVSETQLMIRMDYSNFDDYWSPMVAGEGPFGKFLSSLDAPDRARAEAAVREAYQAGQPDGPRSFANVAWACRGIAP | not soluble |
| MGSDKIHHHHHHMEQLLHYVWKHKIFPLKELKTTTGQQVEVIDTGLANTDAGPDFFNAKLKLDGVLWIGNIEIHERSSDWFKHGHHADAGYNSVILHIASEIDTEISRSNGERIPQIQLICPEAVRTNYKELLETDSYPPCYRIIPSLPPFTAHSWMTALQMERFEQKATLLNERLKRCQGNWEDAFFITLARNFGFGLNGDAFETWAHRLPFRAVDKHRNDLFQIEAIFFGQAGILEDSDGDGYYLRLKKEYTYLQHKFGLIPMDASLWRFLRLRPANFPHIRIAQLACLYHRAYGLLSRIMETETLQGVRDILKGGTSEYWLTHYTFGGSSPSRPKTLSNTSLDLLIINTVVTFLYAYGLHKGNRVLCARAGCFLEELKAENNYITRMWEQCGMKASNAADSQALIQLKKEYCDKKKCLYCRIGYEYLKRS | not soluble |
| MGSDKIHHHHHHMEQVDMGPAQAPPLFSGQLDARTRAASVDLHGCNVDYWVYEPVSVTAETRTMLVVHGFRGDHHGLLRVADQLPDMRLIMPDLPGFGSSDAFPDGGHSVRRYGQFISDFMAALGLGPDTVLLGHSFGSIVASHFAAANPGAVFPLILINPIAAPALEGPKGVMTKLAVIYYEASARLPRALGLYLLRSRLIVRVMSMAMAKTRDKQLLQFIHGQHNAYFSAFANRDSLLESFKASVGSNVSEVAPDLSLPVLLIAGEKDEIAMLPDQHKLQALLPDGTLEVIPGVGHLIHYETPQPAAGFIRRFLKDHPA | not soluble |
| MGSDKIHHHHHHMERMALHFEILENGKVKCLLCPHECVLDNGQIGLCGVRKNKNGSLVSLNYGEVTAIAMDPIEKKPLFHFNPGEQIFSVGTFGCNFKCGFCQNWEISQAKPETKRVTPEQLVKIAQMNRNSKGIAFTYNEPLVWYEFVLDTSRVAVREGMYCVLVTNGFINEEPLELLFQSVHAMNIDLKGFNRDFYREIGGDLDVVLRNIEKVYNAGIHVELTTLIIPGKNDDKEDLRREFEWIADLDKDIPLHISRYFPNYKYTIPPTPIEELIEIYEMAREYLNFVYLGNVWDERYESTFCPDCGNLVIRRQGYEVEKVGLDEEGKCTKCGRQIATIIG | not soluble |
| MGSDKIHHHHHHMERNEIEQLVAHGIFPYDQQAKTRLIETAISYILLKGSYAYKIKKNIKLSFLDFSTLEKRRHFCYEELRLNQRLAKDMYINVFAVSKKGKQWSISTGPAKAKEYVILMKGMNPDHQLNALLKKNRITKKPIRQLAQQLADFHQNEKSLSLTYDPFFLSREFADIEKFSSTIEKKLGVDYYKLVQTCIQLSNHFVLLQQEFISKRPCLGYFKNCHGDLHSQNIFIEKKPVIFDCIEFREAFRHIDVLNEIAFLCMDLETYGYADLSKIFLTDYIKKTGYAFGKKEQLLFTYFKAYRSCIRAKVHTIEMSQHPSSTQIKEKVKKYIEGMAGYMIEIAGKF | not soluble |
| MGSDKIHHHHHHMERNEMLKKVEAAMPNARFKHTLGVEKAAVELAEHYHMDVEKARITALLHDYAKYYDDDKARKIIEDEGYDPRLLSFHRSLWHAPVGAYLAEKEFGITDTEILEAIRLHTTGSATMSDFDKLIYLADYTEQGRTFPGVYKARRLALKSLNEAMLFALSNTITHLVKKQQLVFPDTLDAYNYFVNLNLEGDY | not soluble |
| MGSDKIHHHHHHMERRRWLGAMAGVCPSCGRTLEGSGVRRLCPDCYVERYGVARIPEAVKFVYCRDCGAYRYQGGWNEGLESVEDTLREYLHMVLTVRMKPTEAVEEAWVESIELVQAFAGPGVYTALVTVAGRAGGQSLVERKIITVEASQALCPRCTARSTGRGFEAEVKVRSTAGSLGRDVKTGIARVLRRSRSIAGFVVKVDENREGLDIYLTDQTAARMLAGKLRSEFSAEVKESYKLVGRQPSGRRKGRLTISVRIPEYRPGELISVEGRPHLYLGRSGRGLVTIDLDTGRERVVDTSRTGVLAGVKRYEPGARLRRMMLLSSSGDSMVFLDVDKGMQEVVDAPRGSVRPFVESMEPGRVYEVFIHGGRIYVLRETG | not soluble |
